Where two headings read alike, the source gives them in different places.
How the values were obtained:
[1] = target: human adenylosuccinate lyase K246E mutant (human) (UniProt P30566)
[2] = target: human adenylosuccinate lyase K246E mutant (human) (UniProt P30566); assay: AUC
SEC = target: the molecule itself; assay: SEC
AUC [3] = target: the molecule itself; assay: AUC
AUC [4] = target: the molecule itself; assay: AUC; remark: listed apart in the source
AUC [5] = target: the molecule itself; assay: AUC; remark: listed apart in the source

human adenylosuccinate lyase K246E mutant (from UniProt P30566 1-481) (enzyme)
Vmax of SAMP cleavage at 25 °C [1]: 0.23 µmol/min/mg | percent as dimer (D-12mer model) [2]: 94% | stoichiometry N [2]: 2

B1: human adenylosuccinate lyase, wild type (enzyme)
chain: MAAGGDHGSPDSYRSPLASRYASPEMCFVFSDRYKFRTWRQLWLWLAEAEQTLGLPITDEQIQEMKSNLENIDFKMAAEEEKRLRHDVMAHVHTFGHCCPKAAGIIHLGATSCYVGDNTDLIILRNALDLLLPKLARVISRLADFAKERASLPTLGFTHFQPAQLTTVGKRCCLWIQDLCMDLQNLKRVRDDLRFRGVKGTTGTQASFLQLFEGDDHKVEQLDKMVTEKAGFKRAFIITGQTYTRKVDIEVLSVLASLGASVHKICTDIRLLANLKEMEEPFEKQQIGSSAMPYKRNPMRSERCCSLARHLMTLVMDPLQTASVQWFERTLDDSANRRICLAEAFLTADTILNTLQNISEGLVVYPKVIERRIRQELPFMATENIIMAMVKAGGSRQDCHEKIRVLSQQAASVVKQEGGDNDLIERIQVDAYFSPIHSQLDHLLDPSSFTGRASQQVQRFLEEEVYPLLKPYESVMKVKAE
stoichiometry N (SEC): 4 | percent as monomer (M-Tet model) (AUC [3]): 32% | percent as tetramer (M-Tet model) (AUC [3]): 68% | percent as monomer (M-Tet model) (AUC [4]): 20% | percent as tetramer (M-Tet model) (AUC [4]): 80%

B2: human adenylosuccinate lyase R396H mutant (enzyme)
chain: MAAGGDHGSPDSYRSPLASRYASPEMCFVFSDRYKFRTWRQLWLWLAEAEQTLGLPITDEQIQEMKSNLENIDFKMAAEEEKRLRHDVMAHVHTFGHCCPKAAGIIHLGATSCYVGDNTDLIILRNALDLLLPKLARVISRLADFAKERASLPTLGFTHFQPAQLTTVGKRCCLWIQDLCMDLQNLKRVRDDLRFRGVKGTTGTQASFLQLFEGDDHKVEQLDKMVTEKAGFKRAFIITGQTYTRKVDIEVLSVLASLGASVHKICTDIRLLANLKEMEEPFEKQQIGSSAMPYKRNPMRSERCCSLARHLMTLVMDPLQTASVQWFERTLDDSANRRICLAEAFLTADTILNTLQNISEGLVVYPKVIERRIRQELPFMATENIIMAMVKAGGSHQDCHEKIRVLSQQAASVVKQEGGDNDLIERIQVDAYFSPIHSQLDHLLDPSSFTGRASQQVQRFLEEEVYPLLKPYESVMKVKAE
percent as monomer (M-Tet model) (AUC [3]): 34% | percent as tetramer (M-Tet model) (AUC [3]): 66% | stoichiometry N (AUC [5]): 4

B3: human adenylosuccinate lyase L311V mutant (enzyme)
chain: MAAGGDHGSPDSYRSPLASRYASPEMCFVFSDRYKFRTWRQLWLWLAEAEQTLGLPITDEQIQEMKSNLENIDFKMAAEEEKRLRHDVMAHVHTFGHCCPKAAGIIHLGATSCYVGDNTDLIILRNALDLLLPKLARVISRLADFAKERASLPTLGFTHFQPAQLTTVGKRCCLWIQDLCMDLQNLKRVRDDLRFRGVKGTTGTQASFLQLFEGDDHKVEQLDKMVTEKAGFKRAFIITGQTYTRKVDIEVLSVLASLGASVHKICTDIRLLANLKEMEEPFEKQQIGSSAMPYKRNPMRSERCCSLARHVMTLVMDPLQTASVQWFERTLDDSANRRICLAEAFLTADTILNTLQNISEGLVVYPKVIERRIRQELPFMATENIIMAMVKAGGSRQDCHEKIRVLSQQAASVVKQEGGDNDLIERIQVDAYFSPIHSQLDHLLDPSSFTGRASQQVQRFLEEEVYPLLKPYESVMKVKAE
stoichiometry N (SEC): 4 | percent as monomer (M-Tet model) (AUC [3]): 32% | percent as tetramer (M-Tet model) (AUC [3]): 68% | percent as monomer (M-Tet model) (AUC [4]): 40% | percent as tetramer (M-Tet model) (AUC [4]): 60%

B4: human adenylosuccinate lyase R194C mutant (enzyme)
chain: MAAGGDHGSPDSYRSPLASRYASPEMCFVFSDRYKFRTWRQLWLWLAEAEQTLGLPITDEQIQEMKSNLENIDFKMAAEEEKRLRHDVMAHVHTFGHCCPKAAGIIHLGATSCYVGDNTDLIILRNALDLLLPKLARVISRLADFAKERASLPTLGFTHFQPAQLTTVGKRCCLWIQDLCMDLQNLKRVRDDLCFRGVKGTTGTQASFLQLFEGDDHKVEQLDKMVTEKAGFKRAFIITGQTYTRKVDIEVLSVLASLGASVHKICTDIRLLANLKEMEEPFEKQQIGSSAMPYKRNPMRSERCCSLARHLMTLVMDPLQTASVQWFERTLDDSANRRICLAEAFLTADTILNTLQNISEGLVVYPKVIERRIRQELPFMATENIIMAMVKAGGSRQDCHEKIRVLSQQAASVVKQEGGDNDLIERIQVDAYFSPIHSQLDHLLDPSSFTGRASQQVQRFLEEEVYPLLKPYESVMKVKAE
stoichiometry N (SEC): 4 | percent as monomer (M-Tet model) (AUC [3]): 33% | percent as tetramer (M-Tet model) (AUC [3]): 67% | percent as monomer (M-Tet model) (AUC [4]): 37% | percent as tetramer (M-Tet model) (AUC [4]): 63%

B5: human adenylosuccinate lyase R396C mutant (enzyme)
chain: MAAGGDHGSPDSYRSPLASRYASPEMCFVFSDRYKFRTWRQLWLWLAEAEQTLGLPITDEQIQEMKSNLENIDFKMAAEEEKRLRHDVMAHVHTFGHCCPKAAGIIHLGATSCYVGDNTDLIILRNALDLLLPKLARVISRLADFAKERASLPTLGFTHFQPAQLTTVGKRCCLWIQDLCMDLQNLKRVRDDLRFRGVKGTTGTQASFLQLFEGDDHKVEQLDKMVTEKAGFKRAFIITGQTYTRKVDIEVLSVLASLGASVHKICTDIRLLANLKEMEEPFEKQQIGSSAMPYKRNPMRSERCCSLARHLMTLVMDPLQTASVQWFERTLDDSANRRICLAEAFLTADTILNTLQNISEGLVVYPKVIERRIRQELPFMATENIIMAMVKAGGSCQDCHEKIRVLSQQAASVVKQEGGDNDLIERIQVDAYFSPIHSQLDHLLDPSSFTGRASQQVQRFLEEEVYPLLKPYESVMKVKAE
percent as monomer (M-Tet model) (AUC [3]): 40% | percent as tetramer (M-Tet model) (AUC [3]): 60% | stoichiometry N (AUC [5]): 4 | percent as monomer (M-Tet model) (AUC [4]): 32% | percent as tetramer (M-Tet model) (AUC [4]): 68%
